How the values were obtained:
[1] = biological target: T1, bacterially produced HIS-RNF168 (human, UniProt Q8IYW5 1-571); experiment: pull-down; GST fusion (1 μg) with HIS-tagged fusion (1 μg) in 500 μl NETN buffer (20 mM Tris-HCl pH 8.0, 0.15 M NaCl, 1 mM EDTA, 0.5% NP-40) at 4°C overnight; Glutathione-Sepharose beads; details: both partners purified
T1 construct: E3 ligase RNF168, human; the bacterial construct is not described; source: bacterially produced

[2] = biological target: bacterially produced HIS-LSD1 (human, UniProt O60341 1-852); experiment: as above; details: both partners purified

B1: bacterially produced GST-53BP1-KBD (domain or fragment, human, UniProt Q12888 1234-1616, looked up)
chain: HVLHRHMRTIREVRTLVTRVITDVYYVDGTEVERKVTEETEEPIVECQECETEVSPSQTGGSSGDLGDISSFSSKASSLHRTSSGTSLSAMHSSGSSGKGAGPLRGKTSGTEPADFALPSSRGGPGKLSPRKGVSQTGTPVCEEDGDAGLGIRQGGKAPVTPRGRGRRGRPPSRTTGTRETAVPGPLGIEDISPNLSPDDKSFSRVVPRVPDSTRRTDVGAGALRRSDSPEIPFQAAAGPSDGLDASSPGNSFVGLRVVAKWSSNGYFYSGKITRDVGAGKYKLLFDDGYECDVLGKDILLCDPIPLDTEVTALSEDEYFSAGVVKGHRKESGELYYSIEKEGQRKWYKRMAVILSLEQGNRLREQYGLGPYEAVTPLTKAAD
notes: The limits 1234-1616 are printed for the 53BP1-KBD cDNA clone put into pcDNA3.0; the bacterial construct itself is not described; source: bacterially produced
Does B1 bind [1]?
Result: binds

Does B1 bind [2]?
Result: binds

Reference: paper PMC4499147, “Modulation of LSD1 phosphorylation by CK2/WIP1 regulates RNF168-dependent 53BP1 recruitment in response to DNA damage” (Nucleic Acids Research, 2015)
